From the Human Domainome abundance scans (Beltran et al. 2025)

B1: Cold shock protein CspB, residues 1 to 66; numbered along this chain, P41016 (parent)
chain: MQRGKVKWFNNEKGYGFIEVEGGSDVFVHFTAIQGEGFKTLEEGQEVSFEIVQGNRGPQAANVVKL

Variants of: B1
Test: abundance fitness (aPCA) (normalised: wild type 0, dead -1); higher = more abundant; growth selection in yeast, the domain comes from the species named
Settings: Bacillus caldolyticus

Abundance fitness of substitutions, site by site:
G44: A -0.049; E -0.05; D 0.019; N -0.086; I -0.567; S -0.029; T -0.093; C 0.005; L -0.076; Y -0.066; W -0.111; K -0.041; H 0.014; V -0.344; R -0.013; M -0.043; F -0.126; P -0.311
F38: E -0.078; K -0.049; M -0.075; Q -0.005; S -0.057; L -0.086; G -0.048; W 0.024; I -0.041; Y -0.009; C -0.103; H -0.132; T -0.119; V -0.044; R -0.041; D -0.12; N 0.004
K39: N -0.077; M -0.137; V -0.092; G -0.154; P -0.149; R -0.003; C -0.08; T -0.103; L -0.059; Y -0.148; I -0.133; E -0.114; A -0.013; D -0.148; W -0.194; H -0.08; S -0.072; Q -0.071
E43: G 0.04; C 0.032; I -0.031; P 0.004; Q 0.025; M 0.022; T 0.025; W -0.045; S -0.014; N 0.01; V -0.033; Y -0.017; L -0.012; K 0.059; R 0.032; A 0.023; H 0.03
G37: F -0.153; A -0.082; Q -0.078; L -0.126; R -0.083; T -0.069; W -0.141; M -0.117; I -0.18; D -0.133; H -0.036; P -0.119; E -0.05; V -0.086; C -0.049; S -0.072; Y -0.074
E42: Y -0.036; N -0.02; V -0.008; P -0.043; I -0.051; F -0.048; C -0.013; A 0.018; H 0.008; Q 0.043; G -0.001; K 0.017; D 0.004; L -0.006; T -0.011; M -0.006
Q45: C -0.031; D -0.104; F -0.097; E -0.003; A 0.021; G 0.032
T40: A -0.022; F -0.009; G -0.048; I -0.032; C -0.006; Q -0.041; H -0.064; E -0.027; L -0.087; K -0.065; P -0.227; W -0.076; R -0.043; V -0.043; N -0.078; M -0.04; Y -0.037; S -0.023; D -0.112
E36: P -0.017; V -0.003; R 0.006; G -0.004; Q 0.021; F -0.023; H -0.047; N -0.037; S -0.007; T -0.006; L -0.024; D -0.019; M -0.085; W -0.017; C -0.042
L41: D -0.554; T -0.299; E -0.482; V -0.042; I 0.003; G -0.355; A -0.111; W -0.359; C -0.121; R -0.625; H -0.616; Y -0.368; F -0.199; K -0.721; P -0.46; N -0.515; M -0.01; S -0.433
G35: R -0.111; S -0.035; V -0.033; W -0.134; Y -0.068; T -0.084
